Results published in patent US20230235004A1 (published 2023).
Residue numbers refer to the chain shown, from its start.

T1: mouse MAdCAM expressed on cells (mouse, UniProt Q61826 22-405)
T1 construct: whole, on cells
T1 sequence (looked up): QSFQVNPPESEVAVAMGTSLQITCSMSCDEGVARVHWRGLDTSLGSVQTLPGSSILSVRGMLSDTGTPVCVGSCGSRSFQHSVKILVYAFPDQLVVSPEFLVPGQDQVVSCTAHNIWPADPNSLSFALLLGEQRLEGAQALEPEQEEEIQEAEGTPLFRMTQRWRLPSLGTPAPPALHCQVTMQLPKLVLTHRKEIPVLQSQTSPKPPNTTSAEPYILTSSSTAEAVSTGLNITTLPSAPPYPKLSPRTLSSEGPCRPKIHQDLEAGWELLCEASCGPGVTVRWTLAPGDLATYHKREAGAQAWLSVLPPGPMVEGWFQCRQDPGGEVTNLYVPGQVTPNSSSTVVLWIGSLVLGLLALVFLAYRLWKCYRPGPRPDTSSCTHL

T2: human MAdCAM expressed on cells (human, UniProt Q13477 19-382)
T2 construct: whole, on cells
T2 sequence (looked up): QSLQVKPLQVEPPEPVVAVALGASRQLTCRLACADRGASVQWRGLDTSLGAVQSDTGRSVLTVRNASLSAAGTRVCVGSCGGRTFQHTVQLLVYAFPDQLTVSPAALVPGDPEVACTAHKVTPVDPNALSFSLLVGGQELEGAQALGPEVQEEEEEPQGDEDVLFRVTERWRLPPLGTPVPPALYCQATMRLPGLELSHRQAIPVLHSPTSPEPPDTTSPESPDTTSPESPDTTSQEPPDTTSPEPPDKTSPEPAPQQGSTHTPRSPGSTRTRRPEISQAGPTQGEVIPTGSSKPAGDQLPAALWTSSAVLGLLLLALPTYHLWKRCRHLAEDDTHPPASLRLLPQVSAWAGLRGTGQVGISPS

B1: MAdCAM Antibody Table 2 clone 18 (antibody, V domains shown)
VH: QVQLVQSGAEVKKPGSSVKVSCKASGYTFTNYYMHWVRQAPGQGLEWMGGIIPIVDRVKYAQKFQGRVTITADESTSTAYMELSSLRSEDTAVYYCAKGRYTVNYYYGMDVWGQGTTVTVSS
VL: DIQMTQSPSSLSASVGDRVTITCQANQDISNYLNWYQQKPGKAPKLLIYRASKLEAGVPSRFSGSGSGTDFTLTISSLQPEDFATYYCQQSSEIPYSFGQGTKLEIK
notes: IgG format
B2: MAdCAM Antibody Table 2 clone 13 (antibody, V domains shown)
VH: QVQLVQSGAEVKKPGASVKVSCKASGYTFTTYYMHWVRQAPGQGLEWMGGFDPEDGETIYAQKFQGRVTMTRDTSTSTVYMELSSLRSEDTAVYYCARHAVAGAVGAGYYYYGMDVWGQGTMVTVSS
VL: DIQMTQSPSSLSASVGDRVTITCRASESISNWLAWYQQKPGKAPKLLIYAASTLQSGVPSRFSGSGSGTDFTLTISSLQPEDFATYYCQQSYSVPFTFGPGTKVDIK
notes: IgG format
B3: MAdCAM Antibody Table 2 clone 19 (antibody, V domains shown)
VH: EVQLLESGGGLVQPGGSLRLSCAASGFTFEDYAMHWVRQAPGKGLEWVSYLNSDGGSTSYADSVKGRFTISRDNSKNTLYLQMNSLRAEDTAVYYCAKDYCTNGVCAFDYWGQGTLVTVSS
VL: DIQMTQSPSSLSASVGDRVTITCRASQSISTYLNWYQQKPGKAPKLLIYDASNLETGVPSRFSGSGSGTDFTLTISSLQPEDFATYYCQQSYTIPITFGQGTRLEIK
notes: IgG format
B4: MAdCAM Antibody Table 2 clone 34 (antibody, V domains shown)
VH: QVQLVQSGAEVKKPGASVKVSCKASGYTFTGYYIHWVRQAPGQGLEWMGWMNPNSGNTGYAQKFQGRVTMTRDTSTSTVYMELSSLRSEDTAVYYCARDPGFLGYCSGGSCYDGWFDPWGQGTLVTVSS
VL: B3 VL with T31S, N34H, D50A, N53S, E55Q, T56S, I94A, I96Y, R103K
notes: IgG format
B5: MAdCAM Antibody Table 2 clone 35 (antibody, V domains shown)
VH: B4 VH with C106S, C111S
VL: B3 VL with T31S, N34H, D50A, N53S, E55Q, T56S, I94A, I96Y, R103K
notes: IgG format
B6: MAdCAM Antibody Table 2 clone 45 (antibody, V domains shown)
VH: EVQLVESGGGLVKPGGSLRLSCAASGFTFGDYAMSWVRQAPGKGLEWVSYISGDIGYTNYAAPVKGRFTISRDDSKNTLYLQMNSLKTEDTAVYYCARDVAATGNWYFDLWGRGTLVTVSS
VL: not shown
notes: IgG format
B7: MAdCAM Antibody Table 2 clone 9 (antibody, V domains shown)
VH: QVQLVQSGAEVKKPGASVKVSCKASGYTFTSYYMHWVRQAPGQGLEWMGIINHSGGSTSYAQKFQGRVTMTRDTSTSTVYMELSSLRSEDTAVYYCARPYSGWYFAFDIWGQGTLVTVSS
VL: not shown
notes: IgG format
B8: MAdCAM Antibody Table 2 clone 21 (antibody, V domains shown)
VH: EVQLVESGGGLVKPGGSLRLSCAASGFTFSSYWMSWVRQAPGKGLEWVSYISGDSGYTNYAAPVKGRFTISRDDSKNTLYLQMNSLKTEDTAVYYCARANSSGWYDWYFDLWGRGTLVTVSS
VL: not shown
notes: IgG format
B9: MAdCAM Antibody Table 2 clone 26 (antibody, V domains shown)
VH: EVQLLESGGGLVQPGGSLRLSCAASGFTFSSYAMSWVRQAPGKGLEWVSYISSSSTYTNYADSVKGRFTISRDNSKNTLYLQMNSLRAEDTAVYYCARANSSSWYDWYFDLWGQGTLVTVSS
VL: not shown
notes: IgG format
B10: MAdCAM Antibody Table 2 clone 27 (antibody, V domains shown)
VH: B9 VH with A33Q
VL: not shown
notes: IgG format
B11: MAdCAM Antibody Table 2 clone 52 (antibody, V domains shown)
VH: EVQLLESGGGLVQPGGSLRLSCAASGFTFDDYGMSWVRQAPGKGLEWVSYISSSSSYIYYADSVKGRFTISRDNSKNTLYLQMNSLRAEDTAVYYCAREIAAAGFYGMDVWGQGTTVTVSS
VL: not shown
notes: IgG format
B12: MAdCAM Antibody Table 2 clone 10 (antibody, V domains shown)
VH: EVQLLESGGGLVQPGGSLRLSCAASGFMFGDYAMHWVRQAPGKGLEWVSAISGSGGSTYYADSVKGRFTISRDNSKNTLYLQMNSLRAEDTAVYYCAKDLVVAGIWYFDLWGRGTLVTVSS
VL: DIQMTQSPSSLSASVGDRVTITCRASQGISNNLNWYQQKPGKAPKLLIYDASSLESGVPSRFSGSGSGTDFTLTISSLQPEDFATYYCQQTHSFPSTFGQGTKLEIK
notes: IgG format
B13: MAdCAM Antibody Table 2 clone 15 (antibody, V domains shown)
VH: QVQLVQSGAEVKKPGASVKVSCKASGYTFTGYYMHWVRQAPGQGLEWMGWIGPNSGDTNYAQKFQGRVTMTRDTSTSTVYMELSSLRSEDTAVYYCARDLDHNWYFDLWGRGTLVTVSS
VL: DIVMTQSPLSLPVTPGEPASISCRSSQSLLHSNGYNYLDWYLQKPGQSPQLLIYSSSNRAPGVPDRFSGSGSGTDFTLKISRVEAEDVGVYYCMQALHIPLTFGGGTKVEIK
notes: IgG format
B14: MAdCAM Antibody Table 2 clone 1 (antibody, V domains shown)
VH: EVQLLESGGGLVQPGGSLRLSCAASGFTFSSYGMHWVRQAPGKGLEWVAVISDDGSDKYYADSVKGRFTISRDNSKNTLYLQMNSLRAEDTAVYYCTTSKYYYYYGMDVWGQGTTVTVSS
VL: DIQMTQSPSSLSASVGDRVTITCQASQDISKSLNWYQQKPGKAPKLLIYAASSLQSGVPSRFSGSGSGTDFTLTISSLQPEDFATYYCQQGYSTPLTFGGGTKVEIK
notes: IgG format
B15: MAdCAM Antibody Table 2 clone 12 (antibody, V domains shown)
VH: QVQLVQSGAEVKKPGASVKVSCKASGYTLTTWYMYWVRQAPGQGLEWMGWINPNRGATNYAQKFQGRVTMTRDTSTSTVYMELSSLRSEDTAVYYCAKGDLWGAMDVWGQGTLVTVSS
VL: B14 VL with Q24R, Q27D, D28N, S30G, K31S, S32W, N34A, L96P, G100Q
notes: IgG format
B16: MAdCAM Antibody Table 2 clone 32 (antibody, V domains shown)
VH: B15 VH
VL: B14 VL with Q24R, Q27D, D28N, S30G, K31S, S32W, N34A, L96P, G100Q
notes: IgG format
B17: MAdCAM Antibody Table 2 clone 37 (antibody, V domains shown)
VH: EVQLLESGGGLVQPGGSLRLSCAASGFTFSDYGMPWVRQAPGKGLEWVSAISGSGGSTYYADSVKGRFTISRDNSKNTLYLQMNSLRAEDTAVYYCARDGGWQPAAILDYWGQGTLVTVSS
VL: B12 VL with S53N, S56T, T91S, H92Y, F94T, S96L, L104V
notes: IgG format
B18: MAdCAM Antibody Table 2 clone 16 (antibody, V domains shown)
VH: EVQLLESGGGLVQPGGSLRLSCAASGFTFDDYAMHWVRQAPGKGLEWVSYIDASGTTIYYADSVKGRFTISRDNSKNTLYLQMNSLRAEDTAVYYCAKDQAAAGYWYFDLWGRGTLVTVSS
VL: B3 VL with R24Q, S28D, T31N, D50K, N53T, T56S, T93S, I94T
notes: IgG format
B19: MAdCAM Antibody Table 2 clone 25 (antibody, V domains shown)
VH: EVQLLESGGGLVQPGGSLRLSCAASGFTFSNAWMSWVRQAPGKGLEWVSTIVGNGGATYYADSVKGRFTISRDNSKNTLYLQMNSLRAEDTAVYYCARDNPLRWQGMDVWGQGTLVTVSS
VL: B2 VL with E27Q, S28D, W32Y, A34N, T53S, V94I, F96P
notes: IgG format
B20: MAdCAM Antibody Table 2 clone 40 (antibody, V domains shown)
VH: B15 VH
VL: B14 VL with Q24R, Q27D, D28N, S30G, K31S, S32W, N34A, L96P, G100Q
notes: IgG format
B21: MAdCAM Antibody Table 2 clone 33 (antibody, V domains shown)
VH: B15 VH with L113T
VL: B14 VL with Q24R, Q27D, D28N, S30G, K31S, S32W, N34A, L96P, G100Q
notes: IgG format
B22: MAdCAM Antibody Table 2 clone 59 (antibody, V domains shown)
VH: B17 VH with T28S, P35H
VL: B12 VL with S53N, S56T, T91S, H92Y, F94T, S96L, Q100G, L104V
notes: IgG format

Molecular target: T1, mouse MAdCAM expressed on cells
Assay: cell binding

Binder | binding result
B1 | no binding
B2 | no binding
B3 | no binding
B4 | no binding
B5 | no binding
B6 | no binding
B7 | no binding
B8 | no binding
B9 | no binding
B10 | no binding
B11 | no binding
B12 | binds
B13 | no binding
B14 | binds
B15 | no binding
B16 | no binding
B17 | no binding
B18 | no binding
B19 | no binding
B20 | no binding
B21 | no binding
B22 | no binding

Molecular target: T2, human MAdCAM expressed on cells
Assay: cell binding

Binder | binding result
B1 | binds
B2 | binds
B3 | binds
B4 | binds
B8 | binds
B9 | binds
B10 | binds
B12 | binds
B13 | binds
B14 | binds
B15 | binds
B17 | binds
B18 | binds
B19 | binds
B22 | binds
